According to patent US20210388105A1 (ELPISCIENCE SUZHOU BIOPHARMA, published 2021):

Key:
Test in all cases: FACS, mutant-EGFP on HEK293F cells
[1] = molecular target: T1, KW27-4 (human CD39 mutant, C-terminal EGFP) (human, UniProt P49961 1-510)
T1 construct: expressed on HEK293F cells; not shown: C-terminal EGFP fusion (vector pCMV3-GFPSpark)
T1 chain: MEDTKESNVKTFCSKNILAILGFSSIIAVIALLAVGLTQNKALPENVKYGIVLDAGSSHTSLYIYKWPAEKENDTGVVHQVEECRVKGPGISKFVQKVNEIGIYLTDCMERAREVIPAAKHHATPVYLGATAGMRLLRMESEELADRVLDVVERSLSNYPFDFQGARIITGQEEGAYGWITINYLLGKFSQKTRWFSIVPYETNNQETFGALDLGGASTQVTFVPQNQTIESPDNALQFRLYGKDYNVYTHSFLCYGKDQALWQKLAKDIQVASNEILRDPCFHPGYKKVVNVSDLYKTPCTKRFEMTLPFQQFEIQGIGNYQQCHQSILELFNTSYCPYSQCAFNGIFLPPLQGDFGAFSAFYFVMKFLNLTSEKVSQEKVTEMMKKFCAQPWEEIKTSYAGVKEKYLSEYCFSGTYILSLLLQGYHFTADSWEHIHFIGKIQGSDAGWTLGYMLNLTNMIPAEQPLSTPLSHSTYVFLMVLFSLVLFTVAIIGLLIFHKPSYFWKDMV
Protocol: (§1) Briefly, the human CD39 mutants were generated by gene synthesis and then cloned into an expression vector pCMV3-GFPSpark. The vectors containing the validated mutated sequences were prepared and transfected into HEK293F cells. Three days post transfection, the cells were collected to testing EGFP for transgene expression. A range of dosages of antibodies (start from 100 nM, 3-folds dilution, 11 points) were tested on the 20 generated mutants and stained by AlexFluor647 labelled anti-hIgG by FACS. Antibody binding was descripted as relative binding which is derived from AlexFluor647 intensity divided by GFP intensity.

[2] = molecular target: T2, KW27-8 (human CD39 mutant, C-terminal EGFP) (human, UniProt P49961 1-510)
T2 construct: expressed on HEK293F cells; not shown: C-terminal EGFP fusion (vector pCMV3-GFPSpark)
T2 chain: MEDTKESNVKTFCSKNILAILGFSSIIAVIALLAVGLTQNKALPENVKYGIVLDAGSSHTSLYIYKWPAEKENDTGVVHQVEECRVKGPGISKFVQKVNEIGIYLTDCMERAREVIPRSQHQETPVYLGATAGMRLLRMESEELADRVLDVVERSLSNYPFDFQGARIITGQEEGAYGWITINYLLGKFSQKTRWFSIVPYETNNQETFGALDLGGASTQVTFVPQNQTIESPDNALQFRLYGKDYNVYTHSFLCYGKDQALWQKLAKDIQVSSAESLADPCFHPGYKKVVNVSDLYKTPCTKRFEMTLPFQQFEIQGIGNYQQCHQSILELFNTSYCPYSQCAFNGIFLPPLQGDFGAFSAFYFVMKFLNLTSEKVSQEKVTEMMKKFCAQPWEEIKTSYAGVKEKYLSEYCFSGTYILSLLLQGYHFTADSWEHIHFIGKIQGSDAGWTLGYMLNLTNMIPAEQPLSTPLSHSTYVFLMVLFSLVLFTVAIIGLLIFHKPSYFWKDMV
Protocol: as §1

[3] = molecular target: T3, KW27-17 (human CD39 mutant, C-terminal EGFP) (human, UniProt P49961 1-510)
T3 construct: expressed on HEK293F cells; not shown: C-terminal EGFP fusion (vector pCMV3-GFPSpark)
T3 chain: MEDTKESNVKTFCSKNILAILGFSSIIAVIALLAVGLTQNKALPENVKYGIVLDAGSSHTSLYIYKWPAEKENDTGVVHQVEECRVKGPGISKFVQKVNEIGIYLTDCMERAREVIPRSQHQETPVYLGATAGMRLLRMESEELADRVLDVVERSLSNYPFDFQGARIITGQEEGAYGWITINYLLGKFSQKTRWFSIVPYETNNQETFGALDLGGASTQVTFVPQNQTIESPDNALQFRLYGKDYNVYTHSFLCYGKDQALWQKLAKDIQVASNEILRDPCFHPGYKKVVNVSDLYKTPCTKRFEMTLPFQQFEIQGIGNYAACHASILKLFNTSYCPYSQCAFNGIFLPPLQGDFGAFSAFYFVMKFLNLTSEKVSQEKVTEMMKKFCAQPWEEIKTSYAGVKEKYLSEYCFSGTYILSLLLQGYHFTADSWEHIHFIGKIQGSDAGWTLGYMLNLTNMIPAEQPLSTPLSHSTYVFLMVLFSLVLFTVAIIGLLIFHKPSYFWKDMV
Protocol: as §1

[4] = molecular target: T4, KW27-18 (human CD39 mutant, C-terminal EGFP) (human, UniProt P49961 1-510)
T4 construct: expressed on HEK293F cells; not shown: C-terminal EGFP fusion (vector pCMV3-GFPSpark)
T4 chain: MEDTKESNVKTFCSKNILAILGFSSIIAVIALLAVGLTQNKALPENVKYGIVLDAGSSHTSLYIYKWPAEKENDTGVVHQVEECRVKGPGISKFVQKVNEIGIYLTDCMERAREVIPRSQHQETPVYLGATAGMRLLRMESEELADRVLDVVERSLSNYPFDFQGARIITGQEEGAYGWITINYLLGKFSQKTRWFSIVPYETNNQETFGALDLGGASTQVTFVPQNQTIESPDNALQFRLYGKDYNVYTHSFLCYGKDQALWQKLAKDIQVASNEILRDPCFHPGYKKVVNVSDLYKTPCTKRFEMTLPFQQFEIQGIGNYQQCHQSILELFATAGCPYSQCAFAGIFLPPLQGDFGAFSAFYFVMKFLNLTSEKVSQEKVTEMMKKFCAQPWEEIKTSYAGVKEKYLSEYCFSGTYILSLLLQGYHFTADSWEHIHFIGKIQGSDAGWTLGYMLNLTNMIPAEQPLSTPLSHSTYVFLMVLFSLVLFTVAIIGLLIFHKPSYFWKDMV
Protocol: as §1

Measured: binding result

B1: Antibody T895 (antibody, V domains shown)
VH: EVQLQQSGPELVKPGASVKMSCKASGYTFTDYNMHWVKQSHGRTLEWIGYIVPLNGGSTFNQKFKGRATLTVNTSSRTAYMELRSLTSEDSAAYYCARGGTRFAYWGQGTLVTVSA
VL: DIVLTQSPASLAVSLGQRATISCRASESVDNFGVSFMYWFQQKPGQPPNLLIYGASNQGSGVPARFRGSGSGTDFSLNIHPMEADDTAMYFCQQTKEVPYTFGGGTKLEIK
notes: also called 31895
binds: all assays above

B2: c35 (antibody, V domains shown)
VH: EVRLQQSGAELVKPGASVKLSCTASGFNIEDTYVHWMKQRPEQGLEWIGRIDPAIDNSKYDPKFQGKATITAVSSSNTAYLQLSSLTSEDTAVYYCALYDGYNVYAMDYWGQGTSVTVSS
VL: DIVMTQAAFSNPVTLGTSASISCRSSKNLLHSNGITYLYWYLQRPGQSPQLLIYRASTLASGVPNRFSGSESGTDFTLRISRVEAEDVGVYYCAQLLELPHTFGGGTKLEIK
notes: its making is not described; also called chimeric antibody c35
binds: all assays above

B3: Antibody 9-8B (antibody, V domains shown)
VH: QIQLVQSGPELKKPGETVKISCKASGYTFTHYGMNWVKQAPGKGLKWMGWINTYTGELTYADDFKGRFAFSLETSASTAYLQINNLKNEDTATYFCARRAYYRYDYVMDYWGQGTSVTVSS
VL: DIVMTQSQKFMSTSVGDRVSVTCKASHNVGTNVAWYQQKPGQSPKALIYSASYRYSGVPGRFTGSGSGTDFTLTISNVQSEDLAEYFCHQYNNYPYTFGGGTKLEIK
binds: all assays above

B4: hu23.H5L5 (antibody, V domains shown)
VH: QVQLVQSGAEVKKPGASVKVSCKASGYNLKDTFLHWVRQAPGQGLEWMGRIDPANGNIKYDPKFQGRVTITADTSANTAYMELISLRSEDTAVYYCANSPYYYGSGYRIFDVWGQGTTVTVSS
VL: QIVLTQSPATLSLSPGERATLSCSAFSSVNYMHWYQQKPGQAPRLLIYTTSNLASGIPTRFSGSGSGTSYTLTISSLEPEDFAVYYCQQRSTYPFTFGQGTKLEIK
notes: humanized c23
binds: all assays above

B5: c34 (antibody, V domains shown)
VH: EIQVQQSGPELVKPGASVKVSCKASGYSFTDYNMYWVKQSHGKSLEWIGFIDPYNGYTSYNQKFKGKATLTIDKSSSTAFMHLNSLTSEDSAVYYCAIYGYDDAYYFDYWGQGTTLTVSS
VL: QIVLTQSPAIMSASPGEKVTITCSATSSVSYMHWFRQKPGTSPKLWIYSTSNLASGVPARFSGSGSGTSYSLTISRMAAEDAATYYCQQRITYPFTFGSGTKLEIT
notes: its making is not described; also called chimeric antibody c34
binds: all assays above
